According to US20030157644A1 (MOUNT SINAI SCHOOL OF MEDICINE OF THE CITY UNIVERSITY OF …, published 2003):
Ends that are not written are not given here.

Legend:
[1] = molecular target: T1, phospholipase C-β2 (human, UniProt Q00722 1-1185, Cascade Blue acetyl azide label on amines, labelling ratio 1:1 (FRET experiment only)); assay: cell-based or functional assay
[2] = molecular target: T1, phospholipase C-β2; assay: fluorescence resonance energy transfer, DABMI-peptide and Cascade Blue-PLC-β2, with and without phospholipids
Protocol: The reaction was allowed to proceed for 30 minutes at room temperature before quenching with 5 mM DTT. The final labeling ratios, as determined by absorption, were 1:1 for CB-PLC-β2 and 0.8 for the two DABMI-peptides. Fluorescence spectra were taken on an ISS-PC7 (ISS Champaign, IL) photon counting spectrofluorometer using a 3×3 mm cuvette and exciting at 380 nm and scanning from 400-560 nm.
The stimulation by maximal concentration of peptide was non-additive with Gβγ stimulation (FIG. 5A, upper panel).

T1 sequence (Q00722 other isoform, or with tags, fused parts or gaps limits assumed): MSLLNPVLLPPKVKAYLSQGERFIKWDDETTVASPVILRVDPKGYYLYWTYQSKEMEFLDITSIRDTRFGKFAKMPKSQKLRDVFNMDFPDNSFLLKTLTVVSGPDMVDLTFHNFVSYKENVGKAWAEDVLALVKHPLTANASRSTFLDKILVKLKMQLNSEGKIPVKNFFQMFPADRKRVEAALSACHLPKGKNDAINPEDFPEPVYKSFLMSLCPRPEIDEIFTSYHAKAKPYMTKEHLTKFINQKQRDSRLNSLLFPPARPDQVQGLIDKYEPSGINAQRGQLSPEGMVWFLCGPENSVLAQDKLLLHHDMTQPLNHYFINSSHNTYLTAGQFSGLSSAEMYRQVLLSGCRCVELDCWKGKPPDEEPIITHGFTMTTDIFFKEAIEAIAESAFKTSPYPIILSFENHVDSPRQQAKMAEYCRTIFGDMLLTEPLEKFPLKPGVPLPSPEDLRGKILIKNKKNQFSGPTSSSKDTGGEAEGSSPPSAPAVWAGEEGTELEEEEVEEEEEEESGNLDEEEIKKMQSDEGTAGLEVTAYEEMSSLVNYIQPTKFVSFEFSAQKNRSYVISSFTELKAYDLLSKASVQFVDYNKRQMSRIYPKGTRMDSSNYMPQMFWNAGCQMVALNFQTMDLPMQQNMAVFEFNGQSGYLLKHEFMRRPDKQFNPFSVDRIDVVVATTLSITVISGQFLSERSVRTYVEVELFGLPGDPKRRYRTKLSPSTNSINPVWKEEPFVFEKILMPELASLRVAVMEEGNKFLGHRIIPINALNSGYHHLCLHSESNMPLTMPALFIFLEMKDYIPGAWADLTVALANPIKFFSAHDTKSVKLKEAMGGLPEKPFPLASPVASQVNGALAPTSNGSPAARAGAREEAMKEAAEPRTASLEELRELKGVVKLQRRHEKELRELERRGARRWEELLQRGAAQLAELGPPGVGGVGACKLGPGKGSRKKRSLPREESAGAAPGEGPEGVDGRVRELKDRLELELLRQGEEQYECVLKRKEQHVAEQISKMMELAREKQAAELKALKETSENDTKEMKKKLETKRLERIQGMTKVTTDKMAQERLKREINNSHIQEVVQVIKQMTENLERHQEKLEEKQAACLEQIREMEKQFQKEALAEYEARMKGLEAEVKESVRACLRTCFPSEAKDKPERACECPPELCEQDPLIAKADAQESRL

Binder | fold change in affinity of PLC-β2 stimulation against the Gβ 86-105 peptide [1] | binding result [2]
TTNKVHAIPLRRRWVMTCAY [S97,98R Gβ 86-105 peptide] | 5 fold | 
TTNKVHAIPLRSSWVNTCAY (also: DABMI maleimide label in FRET experiment, residue not given here, Synthetic peptide; also called m-TTN) [Gβ 86-105 M101N substituted peptide] |  | no binding
TTNKVHAIPLRSAWVMTCAY (not fully specified) [Gβ 86-105 peptide with S98 substituted with alanine] | ~2 fold | 
